Laboratory results: publication PMC3050645

Substrate: [O-][Cl+]O
Assay: Clark-type O2 electrode, initial rates
Format: biochemical, Dechloromonas aromatica (nom. nud.)
Settings: pH 5.2, 4 °C, 100 mM citrate-phosphate

B1: Chlorite dismutase (Cld) (Dechloromonas aromatica RCB) (protein)
chain: MQPMQSMKIERGTILTQPGVFGVFTMFKLRPDWNKVPVAERKGAAEEVKKLIEKHKDNVLVDLYLTRGLETNSDFFFRINAYDLAKAQTFMREFRSTTVGKNADVFETLVGVTKPLNYISKDKSPGLNAGLSSATYSGPAPRYVIVIPVKKNAEWWNMSPEERLKEMEVHTTPTLAYLVNVKRKLYHSTGLDDTDFITYFETDDLTAFNNLMLSLAQVKENKFHVRWGSPTTLGTIHSPEDVIKALAD
**Q.** Which results are given for B1?
**A.** Km: 620 ± 70 µM; kcat: 20000 ± 6000 s⁻¹; kcat/Km: 3.2e+07 ± 4e+06 M⁻¹ s⁻¹
